Measured values from patent publication US7781394B2, “Methods for identifying anti-tumor and/or anti-angiogenesis drugs with deoxynucleoside 5′-monophosphate N-glycosidase as the target” (Institut Pasteur, priority 2006, dated 2010).

Legend:
[1] = tested on: Rat1a-MYC cells; experiment: In vitro growth of Rat1a-MYC cells overexpressing dominant negative Rcl E93A; format: cell-based, rat; settings: Rat1a-MYC cells overexpressing the mutant
Text: (§1) In addition to the studies on RCL (C6orf108) gain-of-function in tumorigenesis, we determined the effect of loss of RCL function on tumorigenesis with the Rat1a-Myc cells. We generated control Rat1a-MYC cells and Rat1a-MYC cells that overexpress the dominant negative Rcl E 93A mutant. Two independent control transfected cell pools and two independent Rcl E 93A Rat1a-MYC transfectant cell pools were studied (FIG. 7).

[2] = tested on: Rat1a-MYC cell xenografts; experiment: Nude mouse xenografts of Rat1a-MYC-Rcl-E93A cells, tumorigenicity; format: in vivo; settings: two independent cell pools
Text: FIG. 7A. Immunoblot showing expression of Rcl-E93A protein in 293T cells; pPURO (pBabe-Puro) represents control transfected cells; none=untransfected cells. B. Immunoblot showing expression of Rcl and Rcl-E 93A in Rat1a-MYC cells (which have high levels of endogenous Rcl). Numbers at the top represents different cell pools. Numbers at the bottom represents normalized relative expression. C. Agarose gel showing expression of Rcl-E93A mRNA in transfectants by RT-PCR of control pPURO or Rcl-E93A expressing Rat1a-MYC cell pools. Signals are dependent on reverse transcriptase (not shown) D. Tumor sizes of pBABE (pools 1 and 2) control Rat1a-Myc cell pools compared with RCL E93A expressing Rat1a-MYC cell pools (E93A#1+E93A#4). Average tumor sizes determined by caliper are shown for groups of nine animals. Error bars are standard deviations.
as §1

B1: Rcl E 93A: dominant negative RCL mutant, Glu-93 replaced by Ala, overexpressed in Rat1a-MYC cells (protein, UniProt O35820 2-163, looked up, variant E93A)
5-hydroxymethyl-dUMP …: AASGEQAPCSVYFCGSIRGGREDQALYARIVSRLRRYGKVLTEHVADAELEPLGEEAAGGDQFIHEQDLNWLQQADVVVAEVTQPSLGVGYALGRAVALGKPILCLFRPQSGRVLSAMIRGAADGSRFQVWDYAEGEVETMLDRYFEAYLPQKTASSSHPSA
For B1, the “effect on growth rates in vitro” value [1] was “does not affect growth rates” and the “tumorigenicity of xenografts versus control cell pools” value [2] was “remarkable decrease in tumorigenicity”.
